# T1: human IL24 (human, UniProt Q13007 52-206, limits assumed)
# T1 sequence (looked up): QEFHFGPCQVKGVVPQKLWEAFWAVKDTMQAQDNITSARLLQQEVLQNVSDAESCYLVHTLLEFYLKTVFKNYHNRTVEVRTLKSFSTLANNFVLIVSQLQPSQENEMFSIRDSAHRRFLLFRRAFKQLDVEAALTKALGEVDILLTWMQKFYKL
# T2: INF-γ (Homo sapiens (Human), UniProt P01579 24-161)
# T2 sequence: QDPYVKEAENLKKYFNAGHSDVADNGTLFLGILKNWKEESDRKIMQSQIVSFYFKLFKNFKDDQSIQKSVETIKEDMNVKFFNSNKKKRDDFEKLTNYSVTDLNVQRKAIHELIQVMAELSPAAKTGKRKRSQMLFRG
# T3: human IL20 (human, UniProt Q9NYY1 25-176)
# T3 sequence (looked up): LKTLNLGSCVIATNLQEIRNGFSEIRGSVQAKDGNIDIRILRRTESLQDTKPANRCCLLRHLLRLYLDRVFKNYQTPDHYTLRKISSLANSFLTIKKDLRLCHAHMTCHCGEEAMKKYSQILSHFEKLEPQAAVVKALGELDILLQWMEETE
# T4: human IL19 (human, UniProt Q9UHD0 25-177)
# T4 sequence (looked up): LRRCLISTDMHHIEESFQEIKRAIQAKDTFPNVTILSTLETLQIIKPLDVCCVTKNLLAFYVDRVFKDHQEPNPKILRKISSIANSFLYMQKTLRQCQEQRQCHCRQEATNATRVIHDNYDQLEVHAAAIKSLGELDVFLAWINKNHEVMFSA
# T5: human IL26 (human, UniProt Q9NPH9 22-171, limits assumed)
# T5 sequence (looked up): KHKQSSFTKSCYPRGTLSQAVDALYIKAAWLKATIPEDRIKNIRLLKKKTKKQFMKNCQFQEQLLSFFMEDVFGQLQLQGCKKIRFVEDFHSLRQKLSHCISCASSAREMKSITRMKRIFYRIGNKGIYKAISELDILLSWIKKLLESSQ
# T6: mouse IL-22 (mouse, UniProt Q9JJY9 34-179)
# T6 construct: also called mIL-22; mIL22
# T6 sequence (looked up): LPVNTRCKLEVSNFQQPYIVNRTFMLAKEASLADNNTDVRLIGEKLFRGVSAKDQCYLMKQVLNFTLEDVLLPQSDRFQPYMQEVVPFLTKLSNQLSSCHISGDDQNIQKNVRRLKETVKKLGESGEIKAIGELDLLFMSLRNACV
# T7: human IL-22 (human, UniProt Q9GZX6 34-179)
# T7 construct: also called hIL-22; hIL22
# T7 sequence (looked up): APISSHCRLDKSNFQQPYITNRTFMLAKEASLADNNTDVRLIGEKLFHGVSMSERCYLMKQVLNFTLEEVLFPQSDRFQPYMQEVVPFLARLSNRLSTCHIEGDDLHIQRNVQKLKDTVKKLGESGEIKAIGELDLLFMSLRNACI
# Columns and labels:
# human IL24 = target: T1, human IL24; assay: ELISA on coated antigen (1 ug/ml), anti-hIgG-HRP, OD450;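 also: specificity check of antibodies applied at 100 ng/ml to wells bearing human or mouse IL-22, related cytokines or an unrelated control antigen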
# Procedure: (§1) Plates were coated with 100 μl antigens at a concentration of 1 μg/ml. The plates were exposed to the antibodies at a concentration of 100 ng/ml. The bound antibodies were detected with anti-hIgG-HRP by the ELISA assay.
# INF-γ = target: T2, INF-γ; assay: as above
# Procedure: as §1
# human IL20 = target: T3, human IL20; assay: as above
# Procedure: as §1
# human IL19 = target: T4, human IL19; assay: as above
# Procedure: as §1
# human IL26 = target: T5, human IL26; assay: as above
# Procedure: as §1
# INF-λ1 = INF-λ1 (Homo sapiens (Human), UniProt Q8IU54 20-200); assay: as above
# Procedure: as §1
# mouse IL-22 [1] = target: T6, mouse IL-22; assay: SPR (SierraSensors SPR-2), mIL-22 immobilized on chip, antibody injected, heterogeneous ligand model
# Procedure: (§2) The affinity of the 10 antibodies of Table 1 was measured by Surface Plasma Resonance (SPR) using a capture assay on a SPR-2 instrument (SierraSensiors, Hamburg, Germany). The antigens hIL-22 and mIL-22 were immobilized on chips. The running buffer for the assay contained 10 mM HEPES with a pH of 7.4, 500 mM NaCl, and 0.05% TWEEN® 20. […] The off-rate was measured for 6 minutes. Binding constants were calculated using the curve fitting software Analyzer2 (Sierra Sensors). Sensorgrams were analyzed with the instrument specific software and with BIAevaluation 4.1 software. The binding data were analyzed using the Langmuir 1:1 model (human IL-22) or a model for a heterogeneous ligand (mouse IL-220).
# human IL-22 [2] = target: T7, human IL-22; assay: SPR (SierraSensors SPR-2), hIL-22 immobilized on chip, antibody injected, Langmuir 1:1 model
# Procedure: as §2
# [3] = target: IL-22 (CXCL1 assay in HT29 cells); assay: cell-based or functional assay
# mouse IL-22 [4] = target: T6, mouse IL-22; assay: affinity ELISA and titration ELISA, CPE library screen
# Source text: (§3) Specifically, the CPE™ variants were screened by affinity ELISA for mouse IL-22 (mIL-22) binding affinity. […] The primary CPE™ hits were re-arrayed, re-transfected, and screened again by affinity ELISA and also by titration ELISA using both mIL-22 and human IL-22 (hIL-22) for antibodies that bind to both mIL-22 and hIL-22.
# human IL-22 [5] = target: T7, human IL-22; assay: as above
# Source text: as §3
# INF-λ1, sequence (Q8IU54 20-200 limits assumed): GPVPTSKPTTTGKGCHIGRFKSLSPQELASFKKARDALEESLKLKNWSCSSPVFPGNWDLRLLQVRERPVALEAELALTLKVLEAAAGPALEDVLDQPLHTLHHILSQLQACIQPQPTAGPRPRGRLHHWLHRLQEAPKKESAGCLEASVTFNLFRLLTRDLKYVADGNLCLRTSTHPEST
binding result (human IL24),binding result (INF-γ),binding result (human IL20),binding result (human IL19),binding result (human IL26),binding result (INF-λ1),Kd (mouse IL-22 [1]),koff (mouse IL-22 [1]),Kd (human IL-22 [2]),koff (human IL-22 [2]),IC50 (parameter C of the log-logit fit y=(A-D)/(1+(x/C)^B)+D) of inhibition of IL-22-induced CXCL1 production in HT29 cells [3],binding result (mouse IL-22 [4]),binding result (human IL-22 [5]),Binder
no binding (tested: 100 ng/ml),no binding (tested: 100 ng/ml),no binding (tested: 100 ng/ml),no binding (tested: 100 ng/ml),no binding (tested: 100 ng/ml),no binding (tested: 100 ng/ml),4.8 nM,0.00123 s⁻¹,0.0314 nM,3.55e-05 s⁻¹,44.2 ng/ml,–,–,"CPS-14 (antibody, V domains shown, Mutant of humanized hum10, whole antibody expressed in CHO cells; also called LC-04 / HC-31) VH: QVQLVQSGAEVKKPGASVKVSCKASGYIFTSYWIHWIRQPPGKGLEWIGRIYPGTGRTYYNRKFKGRVTISADKSISTAYLQWSSLKASDTAMYYCARSYDYSVAYWGQGTLVTVSS VL: AIQLTQSPSSLSASVGDRVTITCSASSSVSYMHWYLQKPGQSPQLLIYETRKLASGVPSRFSGSGSGTDFTFTISSLEAEDAATYYCQQWSSNPYITFGQGTKVEIKR"
no binding (tested: 100 ng/ml),no binding (tested: 100 ng/ml),no binding (tested: 100 ng/ml),no binding (tested: 100 ng/ml),no binding (tested: 100 ng/ml),no binding (tested: 100 ng/ml),6.27 nM,0.00158 s⁻¹,0.0522 nM,6.94e-05 s⁻¹,155 ng/ml,–,–,"CPS-17 (antibody, V domains shown, Mutant of humanized hum10, whole antibody expressed in CHO cells; also called LC-04 / HC-49) VH: QVQLVQSGAEVKKPGASVKVSCKASGYIFRSYWIHWIRQPPGKGLEWIGRIYPGTGNTYYNRKFKGRVTISADKSISTAYLQWSSLKASDTAMYYCARSYMYSVAYWGQGTLVTVSS VL: AIQLTQSPSSLSASVGDRVTITCSASSSVSYMHWYLQKPGQSPQLLIYETRKLASGVPSRFSGSGSGTDFTFTISSLEAEDAATYYCQQWSSNPYITFGQGTKVEIKR"
no binding (tested: 100 ng/ml),no binding (tested: 100 ng/ml),no binding (tested: 100 ng/ml),no binding (tested: 100 ng/ml),no binding (tested: 100 ng/ml),no binding (tested: 100 ng/ml),4.23 nM,0.00118 s⁻¹,0.0292 nM,3.74e-05 s⁻¹,51 ng/ml,–,–,"CPS-04 (antibody, V domains shown, Mutant of humanized hum10, whole antibody expressed in CHO cells; also called LC-07 / HC-09) VH: QVQLVQSGAEVKKPGASVKVSCKASGYIFRSYWIHWIRQPPGKGLEWIGRIYPGTGNTYYNRKFKGRVTISADKSISTAYLQWSSLKASDTAMYYCARSYDSSVAYWGQGTLVTVSS VL: AIQLTQSPSSLSASVGDRVTITCSASSSVSYMHWYLQKPGQSPQLLIYKTSKLLSGVPSRFSGSGSGTDFTFTISSLEAEDAATYYCQQWSSNPYITFGQGTKVEIKR"

# The next lines start with the binder.
Binder,binding result (human IL24),binding result (INF-γ),binding result (human IL20),binding result (human IL19),binding result (human IL26),binding result (INF-λ1),Kd (mouse IL-22 [1]),koff (mouse IL-22 [1]),Kd (human IL-22 [2]),koff (human IL-22 [2]),IC50 (parameter C of the log-logit fit y=(A-D)/(1+(x/C)^B)+D) of inhibition of IL-22-induced CXCL1 production in HT29 cells [3],binding result (mouse IL-22 [4]),binding result (human IL-22 [5])
"CPE-LC-E049K (antibody, V domains shown, One of the mutant antibodies of the CPE library made from hum10 (CDR positions substituted); built here as hum10 with E49K in the light chain, read from its name) VH: QVQLVQSGAEVKKPGASVKVSCKASGYIFTSYWIHWIRQPPGKGLEWIGRIYPGTGNTYYNEKFKGRVTISADKSISTAYLQWSSLKASDTAMYYCARSYDSSCAYWGQGTLVTVSS VL: AIQLTQSPSSLSASVGDRVTITCSASSSVSYMHWYLQKPGQSPQLLIYKTSKLASGVPSRFSGSGSGTDFTFTISSLEAEDAATYYCQQWSSNPYITFGQGTKVEIKR",no binding (tested: 100 ng/ml),no binding (tested: 100 ng/ml),no binding (tested: 100 ng/ml),no binding (tested: 100 ng/ml),no binding (tested: 100 ng/ml),no binding (tested: 100 ng/ml),40.2 nM,0.00137 s⁻¹,0.156 nM,5.93e-05 s⁻¹,124 ng/ml,–,–
"CPS-11 (antibody, V domains shown, Mutant of humanized hum10, whole antibody expressed in CHO cells; also called LC-06 / HC-25) VH: QVQLVQSGAEVKKPGASVKVSCKASGYIFRSYWIHWIRQPPGKGLEWIGRIYPGTGRTYYNEKFKGRVTISADKSISTAYLQWSSLKASDTAMYYCARSYDYSVAYWGQGTLVTVSS VL: AIQLTQSPSSLSASVGDRVTITCSASSSVSYMHWYLQKPGQSPQLLIYKTRKLASGVPSRFSGSGSGTDFTFTISSLEAEDAATYYCQQWSSNPYITFGQGTKVEIKR",–,–,–,–,–,–,–,–,–,–,–,binds,binds
"CPS-01 (antibody, V domains shown, Mutant of humanized hum10, whole antibody expressed in CHO cells; also called LC-03 / HC-08) VH: QVQLVQSGAEVKKPGASVKVSCKASGYIFRSYWIHWIRQPPGKGLEWIGRIYPGTGRTYYNEKFKGRVTISADKSISTAYLQWSSLKASDTAMYYCARSYDSSVAYWGQGTLVTVSS VL: AIQLTQSPSSLSASVGDRVTITCSASSSVSYMHWYLQKPGQSPQLLIYKTSKLASGVPSRFSGSGSGTDFTFTISSLEAEDAATYYCQQWSSNPYITFGQGTKVEIKR",–,–,–,–,–,–,–,–,–,–,–,binds,binds
"CPS-10 (antibody, V domains shown, Mutant of humanized hum10, whole antibody expressed in CHO cells; also called LC-05 / HC-25) VH: QVQLVQSGAEVKKPGASVKVSCKASGYIFRSYWIHWIRQPPGKGLEWIGRIYPGTGRTYYNEKFKGRVTISADKSISTAYLQWSSLKASDTAMYYCARSYDYSVAYWGQGTLVTVSS VL: AIQLTQSPSSLSASVGDRVTITCSASSSVSYMHWYLQKPGQSPQLLIYETSKLLSGVPSRFSGSGSGTDFTFTISSLEAEDAATYYCQQWSSNPYITFGQGTKVEIKR",–,–,–,–,–,–,–,–,–,–,–,binds,binds
"CPS-16 (antibody, V domains shown, Mutant of humanized hum10, whole antibody expressed in CHO cells; also called LC-03 / HC-49) VH: QVQLVQSGAEVKKPGASVKVSCKASGYIFRSYWIHWIRQPPGKGLEWIGRIYPGTGNTYYNRKFKGRVTISADKSISTAYLQWSSLKASDTAMYYCARSYMYSVAYWGQGTLVTVSS VL: AIQLTQSPSSLSASVGDRVTITCSASSSVSYMHWYLQKPGQSPQLLIYKTSKLASGVPSRFSGSGSGTDFTFTISSLEAEDAATYYCQQWSSNPYITFGQGTKVEIKR",–,–,–,–,–,–,–,–,–,–,–,binds,binds
"CPS-20 (antibody, V domains shown, Mutant of humanized hum10, whole antibody expressed in CHO cells; also called LC-11 / HC-50) VH: QVQLVQSGAEVKKPGASVKVSCKASGYIFRSYWIHWIRQPPGKGLEWIGRIYPGTGNTYYNRKFKGRVTISADKSISTAYLQWSSLKASDTAMYYCARSYMSSVGYWGQGTLVTVSS VL: AIQLTQSPSSLSASVGDRVTITCSASSSVSKMHWYLQKPGQSPQLLIYETRKLASGVPSRFSGSGSGTDFTFTISSLEAEDAATYYCQQWSSNPYITFGQGTKVEIKR",–,–,–,–,–,–,–,–,–,–,–,binds,binds

# Source: patent US20210230263A1 (BIOATLA, published 2021)
